From patent US8492329B2, “Bioactive peptides and methods of using same” (Compugen Ltd., priority 2007, dated 2013)
No end group written: not given here.

Key:
LGR7 (RXFP1) [1] = target: T1, LGR7 (RXFP1) (Homo sapiens, UniProt Q9HBX9); experiment: Competition with Europium labelled H2 Relaxin binding to HEK-293T cells expressing LGR7; set-up: expressed in transfected cells; details: LGR7 HEK-293T; 0.01 nM-10 μM; FIG. 9
T1 sequence (Q9HBX9 1-757): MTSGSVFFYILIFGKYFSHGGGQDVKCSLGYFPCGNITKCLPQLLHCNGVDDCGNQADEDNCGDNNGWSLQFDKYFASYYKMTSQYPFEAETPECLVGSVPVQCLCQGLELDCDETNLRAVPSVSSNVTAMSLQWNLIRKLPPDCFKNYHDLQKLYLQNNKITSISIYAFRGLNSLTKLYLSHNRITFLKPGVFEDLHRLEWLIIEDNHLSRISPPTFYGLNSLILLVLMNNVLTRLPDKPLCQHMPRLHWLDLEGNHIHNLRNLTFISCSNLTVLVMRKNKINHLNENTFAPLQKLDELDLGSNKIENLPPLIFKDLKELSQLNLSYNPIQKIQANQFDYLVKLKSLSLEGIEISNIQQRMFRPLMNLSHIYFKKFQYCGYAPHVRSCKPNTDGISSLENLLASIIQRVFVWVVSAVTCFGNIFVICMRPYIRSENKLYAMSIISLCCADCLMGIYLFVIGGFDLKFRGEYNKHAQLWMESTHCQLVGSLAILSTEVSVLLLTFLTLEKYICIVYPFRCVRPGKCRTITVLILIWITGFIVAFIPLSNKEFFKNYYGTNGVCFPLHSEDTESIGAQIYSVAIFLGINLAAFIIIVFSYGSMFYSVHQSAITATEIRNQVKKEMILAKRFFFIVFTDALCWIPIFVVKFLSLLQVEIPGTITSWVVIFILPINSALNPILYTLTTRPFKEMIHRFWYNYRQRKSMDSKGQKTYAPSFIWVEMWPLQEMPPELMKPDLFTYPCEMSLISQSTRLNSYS
Protocol: The ability of Peptides P74C13V (SEQ ID NO: 10) and P59C13V (SEQ ID NO: 6) to compete with the binding of known ligands to LGR7 or LGR8 was tested by testing the ability of P74C13V (SEQ ID NO: 10) and P59C13V (SEQ ID NO: 6) to compete with the binding of Europium labelled H2 Relaxin or INSL3 (manufactured by the H. Florey institute) to stable HEK-293T cell lines expressing LGR7 or LGR8 respectively.
HEK-293T cell lines stabelly expressing LGR7 (RXFP1) were treated with Europium labelled H2 Relaxin (manufactured by the H. Florey institute) The cells were then treated with decimal increasing concentrations (0.01 nM, 0.1 nM, 1 nM, 10 nM, 100 nM, 1 μM, 10 μM) of un-labeled H2 Relaxin (as a positive control) and the tested peptides P59C13V (P59) (SEQ ID NO: 6), P59C13V-Amide (P59-Amide) (SEQ ID NO: 5), P59-S-Amide (P59S) (SEQ ID NO: 1) and P74C13V (P74) (SEQ ID NO: 10). The binding results are shown as a percentage of specific binding of the radioactive test H2 Relaxin (where 100% is the baseline radiation level).

LGR7 (RXFP1) [2] = target: T1, LGR7 (RXFP1); experiment: pCRE-β-gal reporter assay in Forskolin-treated CHO-K1 cells transiently transfected with LGR7; format: cell-based; set-up: expressed in transfected cells; host or cells: CHO-K1 (transient); details: 5 uM Forskolin, FIG. 7A-B
Protocol: (§1) The ability of P74C13V (P74) (SEQ ID NO: 10) and P59C13V (P59) and P59C13V-Amide (P59-Amide) (SEQ ID NO: 6 and 5 respectively) to activate LGR7 (RXFP1) and LGR8 (RXFP2) was further tested by testing the ability of these peptides to influence cAMP activity induced by 5 μM Forskolin in CHO-K1 cells transiently transfected with LGR7/pCRE-β-gal or LGR8/pCRE-β-gal as compared to H2 relaxin and INSL3 respectively.
LGR7 transfected CHO-K1 cells were treated with 5 uM of Forskolin to stimulate cAMP. The cells were then challenged with increasing doses of H2 Relaxin (as positive control), P74C13V (P74) (SEQ ID NO: 10), P59C13V with (P59-Amide) and without (P59) amide and P59S-Amide (P59S) (SEQ ID NO: 5, 6 and 1, respectively). […] The results are presented as a percentage of Forskolin activity at increasing concentrations of each peptide (represented in log [M]). The baseline for the experiment was the activity of Forskolin alone (100%). Each point represents three unrelated repeats for each experiment together with their standard error bars.

LGR8 (RXFP2) = LGR8 (RXFP2) (Homo sapiens, UniProt Q8WXD0); experiment: pCRE-β-gal reporter assay in Forskolin-treated CHO-K1 cells transiently transfected with LGR8; format: cell-based; set-up: expressed in transfected cells; host or cells: CHO-K1 (transient); details: 5 uM Forskolin, FIG. 8A-B
Chain of LGR8 (RXFP2) (Q8WXD0 whole entry): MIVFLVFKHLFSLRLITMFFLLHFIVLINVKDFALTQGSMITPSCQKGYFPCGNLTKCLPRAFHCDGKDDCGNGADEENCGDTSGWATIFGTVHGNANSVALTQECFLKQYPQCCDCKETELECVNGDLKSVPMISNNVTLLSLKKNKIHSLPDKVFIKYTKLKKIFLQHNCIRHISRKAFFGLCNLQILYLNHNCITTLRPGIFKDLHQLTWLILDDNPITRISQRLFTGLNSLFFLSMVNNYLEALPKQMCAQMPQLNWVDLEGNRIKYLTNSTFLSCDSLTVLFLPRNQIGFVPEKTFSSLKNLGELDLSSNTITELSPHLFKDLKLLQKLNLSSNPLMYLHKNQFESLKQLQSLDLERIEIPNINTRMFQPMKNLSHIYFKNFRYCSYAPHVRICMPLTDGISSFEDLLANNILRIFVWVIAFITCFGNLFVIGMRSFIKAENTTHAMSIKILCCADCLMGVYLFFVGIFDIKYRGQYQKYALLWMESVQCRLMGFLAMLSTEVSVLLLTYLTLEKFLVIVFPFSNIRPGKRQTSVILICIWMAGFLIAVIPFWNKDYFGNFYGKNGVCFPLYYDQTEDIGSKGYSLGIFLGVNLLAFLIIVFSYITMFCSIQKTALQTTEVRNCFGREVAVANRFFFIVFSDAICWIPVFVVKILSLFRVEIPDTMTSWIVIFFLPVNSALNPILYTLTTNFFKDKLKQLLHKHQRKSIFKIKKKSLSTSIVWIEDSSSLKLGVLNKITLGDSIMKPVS
Protocol: as §1
LGR8 transfected CHO-K1 cells were treated with 5 uM of Forskolin to stimulate cAMP. The cells were then challenged with increasing doses of INSL3 (as positive control), P74C13V (P74) (SEQ ID NO: 10), P59C13V with (P59-Amide) and without (P59) amide (SEQ ID NO: 5 and 6, respectively) and P59S-Amide (P59-S) (SEQ ID NO: 1). […] The results are presented as a percentage of Forskolin activity at various concentrations of the peptide (logarithmic scale). Each point represents three unrelated repeats for each experiment.

Substance | competition for binding of Europium-H2 Relaxin (LGR7 (RXFP1) [1]) | CRE activation pattern relative to Forskolin (LGR7 (RXFP1) [2]) | CRE activation pattern relative to Forskolin (LGR8 (RXFP2))
GQKGQVGPPGAAVRRAYAAFSV-Amide (GQKGQVGPPGAAVRRAYAAFSV-NH2) [P59C13V-Amide] | no competition | slight activation pattern | slight activation pattern
H2 Relaxin: H2 Relaxin (ACS), positive control, known ligand of LGR7 (RXFP1) [reference compound] |  | increased activation at higher concentrations | 

Other lines, results leading:

competition for binding of Europium-H2 Relaxin (LGR7 (RXFP1) [1]) | CRE activation pattern relative to Forskolin (LGR7 (RXFP1) [2]) | CRE activation pattern relative to Forskolin (LGR8 (RXFP2)) | Substance
no competition | dual activation pattern effect | dual activation pattern effect | GQKGQVGPPGAAVRRAYAAFSV [Peptide P59C13V]
no competition |  |  | AYAAFSV-Amide (AYAAFSV-NH2) [Peptide P59-S-Amide]
no competition | bell-shaped activation pattern | bell-shaped activation pattern | GQKGQVGPPGAAVRRAYAAFSVGRRAYAAFSV-OH [Peptide P74C13V]
